From PMC4619645

How the values were obtained:
[1] = target: invariant surface glycoprotein ISG65 (Trypanosoma brucei brucei (endogenous in bloodstream-form cells, MITat 1.2, Lister 427)); experiment: native gel or EMSA; Blue Native PAGE of bloodstream-form cell lysates, followed by western blotting; carried out as described in ref. 57
[2] = target: invariant surface glycoprotein ISG75 (Trypanosoma brucei brucei (endogenous in bloodstream-form cells, MITat 1.2, Lister 427)); experiment: as above

invariant surface glycoprotein ISG65 (natural protein)
stoichiometry N [1]: 2

invariant surface glycoprotein ISG75 (natural protein)
stoichiometry N [2]: > 2
